Legend:
EBY.VW4000 = assay: Xylose uptake assay with radioactively labelled xylose; type: cell-based, Saccharomyces cerevisiae; conditions: for Vmax: xylose uptake, Michaelis-Menten fit (GraphPad Prism), three replicates, figures give velocity in nmol xylose per minute per milligram cell dry mass; for xylose uptake rate compared to wild type: FIGS. 7 and 8
Text: FIG. 7: Xylose uptake assay of Gal2_N376Y, N376Y+M435I and Gal2 wild type in EBY.VW4000 (three independent replicates). The uptake velocity is shown in nmol xylose per minute per milligram cell dry mass.
FIG. 8: Xylose uptake assay of Gal2_N376F, N376F+M435I and Gal2 wild type in EBY.VW4000 (three independent replicates). The uptake velocity is shown in nmol xylose per minute per milligram cell dray mass.
Sugar uptake assays were done as described by Bisson et al. (Bisson and Fraenkel, 1983) with modifications according to Walsh et al. (Walsh et al., 1994).
Transformants of strain EBY.VW4000 were grown in selective YEPE to an OD of 1.1-1.6, harvested by centrifugation and washed twice in ice-cold uptake-buffer (RT, 3 min, 3000×g). Cells were kept on ice from here on. The cell pellet was resuspended in ice-cold uptake-buffer to a concentration of 60 mgww/ml and aliquoted to 110 μl. One cell suspension aliquot and one sugar solution were incubated in a water bath at 30° C. for 4-5 min. 100 μl of the cell suspension were pipetted to the sugar solution (50 μl), mixed briefly by pipetting and incubated for 5 (D-[U-^14C]-glucose) or 20 sec (D-[1-^14C]-xylose). The uptake reaction was stopped by transferring 100 μl of the mixture into 10 ml ice-cold quenching-buffer, which was immediately filtered through a Durapore membrane filter (0.22 μm pore size, Millipore). The filter was washed twice with 10 ml ice-cold quenching-buffer, transferred to a scintillation vial containing 4 ml scintillation cocktail (Rotiszint eco plus, Roth) and shaken thoroughly. Additionally to this filter sample (cpmfilter), 10 μl of each reaction were transferred directly to a scintillation vial with 4 ml scintillation cocktail for determination of the total counts in the reaction (cpmtotal). To determine a value for sugar that is bound unspecifically to the cell surface or the filter (cpmblank) a few samples of 33,3 μl sugar solution and 66,6 μl cell suspension were mixed in 10 ml icecold quenching buffer and treated as described above. Radioactivity of all vials was analysed in an Wallac 1409 liquid scintillation counter.
Stocksolutions of 2M, 500 mM or 20 mM glucose or xylose (in H2O) were used to prepare the sugar solutions for the assays (threefold of the desired concentration in the uptake reaction (S, substrate concentration), 50 μl aliquots). Uptake was measured at sugar concentrations 0.2, 1, 5, 25 and 100 mM for glucose and 1, 5, 25, 66, 100, 200 and 500 mM for xylose. Inhibition of xylose uptake by glucose was measured at 25, 66 and 100 mM xylose with additional 25 and 100 mM unlabelled glucose. Sugar solutions contained 0.135 to 0.608 μCi of D-[U-^14C]-glucose (290-300 mCi/mmol) or D-[1-^14C]-xylose (55 mCi/mmol) (American Radiolabeled Chemicals Inc., St. Louis, Mo., USA).
The amount of sugar (Asugar in nmol) taken up during the incubation time (t, in seconds) at a certain sugar concentration (S, in mM): Asugar=((cpmsample−cpmblank)/(cpmtotal·10))·S·100 μl
Transport velocity (in nmol·min^−1·mgww^−1) calculated per milligrams of cell (m, in mgww): V=(Asugar·60 s)/(t·m)
Calculation of Km (Michaelis constant), Vmax (maximal initial uptake velocity) and Ki (inhibitor constant for competitive inhibition) was done by nonlinear regression analysis and global curve fitting in Prism 5 (GraphPad Software, Inc.) with values of three independent measurements.
Xylose uptake of Gal2_N376F, N376F+M435I, N376Y und N376Y+M435I was characterized with a sugar uptake assay. The relevant plasmids were transformed in strain EBY.VW4000. Cells were cultivated in SCM-ura until they reached the exponential growth phase (OD600˜0.6). Then cells were harvested, concentrated to the same OD600 (OD600 35-40), separated into different aliquots and stored on ice.
Three uptake assays (in tripicates) were performed with different concentrations of radioactively labelled xylose. Data were collected and fittet with GraphPad Prism according to Michaelis Menten (FIGS. 7 and 8).

AFY10 = assay: Serial dilution drop test on xylose and xylose-glucose media; type: cell-based, Saccharomyces cerevisiae; conditions: 0.2% (2 g/l) xylose
Experimental: The transformants were cultivated in 5 ml SCE-ura-leu with 2% ethanol at 30°, washed with water and adjusted to an OD600 of 1. Thereof it followed a serial dilution. 5 μl were dropped onto the respective media and it was incubated for five days at 30°. As a control for the dilution SCE-ura-leu with 2% ethanol was taken. The cells of the mutated transporters were dropped onto SCX-ura-leu with 0.2% and 2% D-xylose, as well as SC-ura-leu with 1% D-xylose with 4% D-glucose and SC-ura-leu with 0.2% D-xylose and 2% D-glucose to test their functionality. Furthermore the wild type and Gal2_ep3.1 were used for comparison.
FIG. 5: Drop test of Gal2_M435I in AFY10 after five days at 30°. Several dilutions were dropped from left to right (undiluted, 1:10, 1:100, 1:1000).
FIG. 6: Drop test of Gal2_N376F, N376F+M435I and N376Y+M435I in AFY10 after five days at 30°. Several dilutions were dropped from left to right (undiluted, 1:10, 1:100, 1:1000). But on 20 g/l xylose the order was different (undiluted, 1:100, 1:1000, 1:10).
For easy comparison of growth of different S. cerevisiae strains under various growth conditions a serial dilution spot assay was performed. Cells were grown in liquid culture to exponential phase in appropriate medium, collected by centrifugation (2000×g, 2 min), washed twice with sterile water and then resuspended to an OD600 of 1.0 in selective medium without carbon source. From this cell suspension a ten-fold serial dilution was prepared in selective medium (four dilution steps). 6 μl of each cell suspension were spotted on plates of the media to be examined and allowed to dry. Plates were incubated at 30° C.
To characterize the different constructs which all were verified by sequencing they were transformed together with vector YEp181_pHXT7-optXI_Clos into competent AFY10 cells and drop tests were performed.

Row | Molecule | Vmax (EBY.VW4000) | growth on low xylose (AFY10) | xylose uptake rate compared to wild type (EBY.VW4000)
1 | N376F: Gal2 variant with amino acid substitution N376F (protein, UniProt P13181 1-574, looked up, variant N376F) Galactose transporter: MAVEENNMPVVSQQPQAGEDVISSLSKDSHLSAQSQKYSNDELKAGESGSEGSQSVPIEIPKKPMSEYVTVSLLCLCVAFGGFMFGWDTGTISGFVVQTDFLRRFGMKHKDGTHYLSNVRTGLIVAIFNIGCAFGGIILSKGGDMYGRKKGLSIVVSVYIVGIIIQIASINKWYQYFIGRIISGLGVGGIAVLCPMLISEIAPKHLRGTLVSCYQLMITAGIFLGYCTNYGTKSYSNSVQWRVPLGLCFAWSLFMIGALTLVPESPRYLCEVNKVEDAKRSIAKSNKVSPEDPAVQAELDLIMAGIEAEKLAGNASWGELFSTKTKVFQRLLMGVFVQMFQQLTGNNYFFYYGTVIFKSVGLDDSFETSIVIGVVFFASTFFSLWTVENLGHRKCLLLGAATMMACMVIYASVGVTRLYPHGKSQPSSKGAGNCMIVFTCFYIFCYATTWAPVAWVITAESFPLRVKSKCMALASASNWVWGFLIAFFTPFITSAINFYYGYVFMGCLVAMFFYVFFFVPETKGLSLEEIQELWEEGVLPWKSEGWIPSSRRGNNYDLEDLQHDDKPWYKAMLE | 25.86 | better than that of Gal2_N376Y+M435I | 
2 | N376Y: Gal2 variant with amino acid substitution N376Y (protein, UniProt P13181 1-574, looked up, variant N376Y) Galactose transporter: MAVEENNMPVVSQQPQAGEDVISSLSKDSHLSAQSQKYSNDELKAGESGSEGSQSVPIEIPKKPMSEYVTVSLLCLCVAFGGFMFGWDTGTISGFVVQTDFLRRFGMKHKDGTHYLSNVRTGLIVAIFNIGCAFGGIILSKGGDMYGRKKGLSIVVSVYIVGIIIQIASINKWYQYFIGRIISGLGVGGIAVLCPMLISEIAPKHLRGTLVSCYQLMITAGIFLGYCTNYGTKSYSNSVQWRVPLGLCFAWSLFMIGALTLVPESPRYLCEVNKVEDAKRSIAKSNKVSPEDPAVQAELDLIMAGIEAEKLAGNASWGELFSTKTKVFQRLLMGVFVQMFQQLTGNNYFFYYGTVIFKSVGLDDSFETSIVIGVVYFASTFFSLWTVENLGHRKCLLLGAATMMACMVIYASVGVTRLYPHGKSQPSSKGAGNCMIVFTCFYIFCYATTWAPVAWVITAESFPLRVKSKCMALASASNWVWGFLIAFFTPFITSAINFYYGYVFMGCLVAMFFYVFFFVPETKGLSLEEIQELWEEGVLPWKSEGWIPSSRRGNNYDLEDLQHDDKPWYKAMLE | 11.92 |  | strong reduction
3 | N376F + M435I: Gal2 variant with amino acid substitutions N376F and M435I (protein, UniProt P13181 1-574, looked up, variant N376F M435I) Galactose transporter: MAVEENNMPVVSQQPQAGEDVISSLSKDSHLSAQSQKYSNDELKAGESGSEGSQSVPIEIPKKPMSEYVTVSLLCLCVAFGGFMFGWDTGTISGFVVQTDFLRRFGMKHKDGTHYLSNVRTGLIVAIFNIGCAFGGIILSKGGDMYGRKKGLSIVVSVYIVGIIIQIASINKWYQYFIGRIISGLGVGGIAVLCPMLISEIAPKHLRGTLVSCYQLMITAGIFLGYCTNYGTKSYSNSVQWRVPLGLCFAWSLFMIGALTLVPESPRYLCEVNKVEDAKRSIAKSNKVSPEDPAVQAELDLIMAGIEAEKLAGNASWGELFSTKTKVFQRLLMGVFVQMFQQLTGNNYFFYYGTVIFKSVGLDDSFETSIVIGVVFFASTFFSLWTVENLGHRKCLLLGAATMMACMVIYASVGVTRLYPHGKSQPSSKGAGNCIIVFTCFYIFCYATTWAPVAWVITAESFPLRVKSKCMALASASNWVWGFLIAFFTPFITSAINFYYGYVFMGCLVAMFFYVFFFVPETKGLSLEEIQELWEEGVLPWKSEGWIPSSRRGNNYDLEDLQHDDKPWYKAMLE | 13.81 | grow the best | reduced uptake rate

From US10308692B2, “Variants of GAL2 transporter and their uses” (Johann Wolfgang Goethe-Universität Frankfurt, priority 2014, dated 2019)
